Source: paper PMC10638095, “Visualization of conformational transition of GRP94 in solution” (Life Science Alliance, 2023)

Target: the molecule itself
Assay: SEC-SAXS; inline SEC-SAXS; 25 mM HEPES pH 8.0, 200 mM NaCl, 1 mM TCEP, with or without 1 mM ADP or AMPPNP; 25°C; 10 mg/ml protein, 100 μl injected; scattering fitted with dimer models (EOM, OLIGOMER)

B1: mouse GRP94 (22-754) (natural protein, UniProt P08113 22-754, looked up)
chain: DDEVDVDGTVEEDLGKSREGSRTDDEVVQREEEAIQLDGLNASQIRELREKSEKFAFQAEVNRMMKLIINSLYKNKEIFLRELISNASDALDKIRLISLTDENALAGNEELTVKIKCDKEKNLLHVTDTGVGMTREELVKNLGTIAKSGTSEFLNKMTEAQEDGQSTSELIGQFGVGFYSAFLVADKVIVTSKHNNDTQHIWESDSNEFSVIADPRGNTLGRGTTITLVLKEEASDYLELDTIKNLVRKYSQFINFPIYVWSSKTETVEEPLEEDEAAKEEKEESDDEAAVEEEEEEKKPKTKKVEKTVWDWELMNDIKPIWQRPSKEVEEDEYKAFYKSFSKESDDPMAYIHFTAEGEVTFKSILFVPTSAPRGLFDEYGSKKSDYIKLYVRRVFITDDFHDMMPKYLNFVKGVVDSDDLPLNVSRETLQQHKLLKVIRKKLVRKTLDMIKKIADEKYNDTFWKEFGTNIKLGVIEDHSNRTRLAKLLRFQSSHHSTDITSLDQYVERMKEKQDKIYFMAGSSRKEAESSPFVERLLKKGYEVIYLTEPVDEYCIQALPEFDGKRFQNVAKEGVKFDESEKTKESREATEKEFEPLLNWMKDKALKDKIEKAVVSQRLTESPCALVASQYGWSGNMERIMKAQAYQTGKDISTNYYASQKKTFEINPRHPLIRDMLRRIKEDEDDKTVMDLAVVLFETATLRSGYLLPDTKAYGDRIERMLRLSLNIDPEAQ
notes: GRP94 (endoplasmin), mouse, residues 22-754, with the full pre-N domain and the charged linker region preserved; The N-terminal Strep-tag II is followed by a thrombin site; no thrombin cleavage is described; The C-terminal 6xHis tag was removed with TEV protease; also called mGRP94; mGrp94; source: E. coli BL21 (DE3), purified (Histrap HP, TEV cleavage, Hitrap Q HP, second Histrap HP …)
- binding result: binds
